Biological target: GLP-1 receptor (UniProt P43220)
Assay: cell-based or functional assay

Chain of GLP-1 receptor (P43220 24-463 limits assumed): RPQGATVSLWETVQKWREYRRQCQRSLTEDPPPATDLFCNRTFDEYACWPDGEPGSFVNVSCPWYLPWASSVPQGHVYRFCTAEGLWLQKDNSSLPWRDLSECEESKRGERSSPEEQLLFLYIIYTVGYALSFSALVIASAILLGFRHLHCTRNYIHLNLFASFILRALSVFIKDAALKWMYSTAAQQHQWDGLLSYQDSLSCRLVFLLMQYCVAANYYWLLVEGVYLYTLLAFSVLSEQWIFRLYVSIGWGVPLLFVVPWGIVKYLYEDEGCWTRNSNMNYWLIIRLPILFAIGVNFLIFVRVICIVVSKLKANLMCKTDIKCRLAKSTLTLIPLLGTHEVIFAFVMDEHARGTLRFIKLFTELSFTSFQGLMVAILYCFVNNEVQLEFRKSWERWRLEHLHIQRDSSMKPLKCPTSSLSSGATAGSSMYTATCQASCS

How did the cAMP EC50 (fold-Ex-4); GLP-1R only cells turn out when Exendin-4 (peptide) was run?
Its cAMP EC50 (fold-Ex-4); GLP-1R only cells is 1 fold.

What about the cAMP EC50 (fold-Ex-4); GLP-1R/FGFR1c/beta-klotho cells of the same substance?
The cAMP EC50 (fold-Ex-4); GLP-1R/FGFR1c/beta-klotho cells was 1 fold.

What about the cAMP EC50 (nM); GLP-1R only cells of the same substance?
Its cAMP EC50 (nM); GLP-1R only cells is 11 nM.

And the cAMP EC50 (nM); GLP-1R/FGFR1c/beta-klotho cells?
Its cAMP EC50 (nM); GLP-1R/FGFR1c/beta-klotho cells is 6 nM.

What about the cAMP y-max (% Ex-4); GLP-1R only cells of the same substance?
Its cAMP y-max (% Ex-4); GLP-1R only cells is 100%.

What about the cAMP y-max (% Ex-4); GLP-1R/FGFR1c/beta-klotho cells of the same substance?
The cAMP y-max (% Ex-4); GLP-1R/FGFR1c/beta-klotho cells was 100%.

— patent US20170166621A1
